Earlier results in article PMC4421034.
pKd: −log10 of the molar value.

Biological target: Calmodulin (UniProt P0DP23)

**Q.** With MLCK (from UniProt Q15746) as the substance, how does the pKd read?
**A.** 9.00
